The values that follow come from patent US20120244164A1 (published 2012).

Numbering of substitutions follows the chain as printed. Names may count otherwise.

Experiment [1] addresses T1, Human c-Met (human, UniProt P08581 25-1390). As to the kind of experiment: cell-based or functional assay.
Experiment [2] has as its target T1, Human c-Met. The experiment can be described thus: cell-based or functional assay. This is another data set of the same source.
The target in experiment [3] is T2, recombinant human c-Met/Fc chimera (R&D systems) (human).
T2 construct: R&D Systems 358-MT/CF, expressed in NS0 cells; also called hc-Met/Fc; hu c-Met/Fc
As to the kind of experiment: HGF/c-MET competition Alphascreen; reference 5D5 Fab v2. How it is done:
(§1) To this mixture the anti-human Fc conjugated acceptor beads and c-MET/Fc (100 pM final concentration) were added and incubated for 2 hours at RT. Next, streptavidin donor beads were added and the mixture was incubated for 1 additional hour. Fluorescence was measured by reading plates on the EnVision Multilabel Plate Reader using an excitation wavelength of 680 nm and an emission wavelength of 520 nm.

In experiment [4] the target is T2, recombinant human c-Met/Fc chimera (R&D …). As to the kind of experiment: HGF/c-MET competition Alphascreen: 100 pM biotinylated hHGF, 100 pM c-MET/Fc. The protocol:
as §1

For experiment [5], the target named is T1, Human c-Met. As to the kind of experiment: cell-based or functional assay. The source holds these as a separate data set.
Experiment [6] deals with T2, recombinant human c-Met/Fc chimera (R&D …). The experiment can be described thus: HGF-competition Alphascreen, EXP 1.
Experiment [7] shares this target. As to the kind of experiment: HGF-competition Alphascreen, EXP 1, second value.
Experiment [8] deals with T1, Human c-Met. As to the kind of experiment: cell-based or functional assay. This is another data set of the same source.
In experiment [9] the target is T3, cynomolgus c-Met (cynomolgus monkey, UniProt A0M8R7 25-1381 (Papio anubis entry)).
T3 construct: also called cynomolgus monkey c-Met; cyno c-Met
As to the kind of experiment: competition FACS: 0.5 nM biotinylated HGF on BAF3 cells with cynomolgus c-Met. The protocol:
Cells were analyzed on a FACSarray flow cytometer as described in earlier examples.

For experiment [10], the target named is T1, Human c-Met. As to the kind of experiment: cell-based or functional assay. This is another data set of the same source.
Experiment [11] concerns the target T2, recombinant human c-Met/Fc chimera (R&D …). As to the kind of experiment: HGF-competition Alphascreen: biotinylated hHGF, human c-Met/Fc.
Experiment [12] has as its target T4, recombinant human CTLA4/Fc chimera (R&D Systems) (human, UniProt P16410 37-162, limits assumed).
T4 construct: control protein; not shown: Fc part of a bought protein, not described
The experiment can be described thus: SPR (ProteOn), CTLA4/Fc captured on anti-human IgG(Fc). How it is done: (§2) Anti-human IgG(Fc) antibody (GE Healthcare) was immobilized on a ProteOn GLC Sensorchip (BioRad) via amine coupling on two ligand lanes at densities of approximately 5300 RU and 2700 RU. […] Regeneration of the surface was performed by an 80 seconds injection of 3M magnesium chloride at 25 μl/min (component of kit BR-1008-39, GE Healthcare).

Experiment [13] concerns the target T2, recombinant human c-Met/Fc chimera (R&D …). The experiment can be described thus: SPR (ProteOn), c-Met/Fc captured on anti-human IgG(Fc). The protocol:
as §2
The experiment was performed as described in Example 5.

For experiment [14] the target is unchanged. The experiment can be described thus: HGF-competition Alphascreen, EXP 2.

T3 sequence (A0M8R7 25-1381 S170N/I621T limits assumed): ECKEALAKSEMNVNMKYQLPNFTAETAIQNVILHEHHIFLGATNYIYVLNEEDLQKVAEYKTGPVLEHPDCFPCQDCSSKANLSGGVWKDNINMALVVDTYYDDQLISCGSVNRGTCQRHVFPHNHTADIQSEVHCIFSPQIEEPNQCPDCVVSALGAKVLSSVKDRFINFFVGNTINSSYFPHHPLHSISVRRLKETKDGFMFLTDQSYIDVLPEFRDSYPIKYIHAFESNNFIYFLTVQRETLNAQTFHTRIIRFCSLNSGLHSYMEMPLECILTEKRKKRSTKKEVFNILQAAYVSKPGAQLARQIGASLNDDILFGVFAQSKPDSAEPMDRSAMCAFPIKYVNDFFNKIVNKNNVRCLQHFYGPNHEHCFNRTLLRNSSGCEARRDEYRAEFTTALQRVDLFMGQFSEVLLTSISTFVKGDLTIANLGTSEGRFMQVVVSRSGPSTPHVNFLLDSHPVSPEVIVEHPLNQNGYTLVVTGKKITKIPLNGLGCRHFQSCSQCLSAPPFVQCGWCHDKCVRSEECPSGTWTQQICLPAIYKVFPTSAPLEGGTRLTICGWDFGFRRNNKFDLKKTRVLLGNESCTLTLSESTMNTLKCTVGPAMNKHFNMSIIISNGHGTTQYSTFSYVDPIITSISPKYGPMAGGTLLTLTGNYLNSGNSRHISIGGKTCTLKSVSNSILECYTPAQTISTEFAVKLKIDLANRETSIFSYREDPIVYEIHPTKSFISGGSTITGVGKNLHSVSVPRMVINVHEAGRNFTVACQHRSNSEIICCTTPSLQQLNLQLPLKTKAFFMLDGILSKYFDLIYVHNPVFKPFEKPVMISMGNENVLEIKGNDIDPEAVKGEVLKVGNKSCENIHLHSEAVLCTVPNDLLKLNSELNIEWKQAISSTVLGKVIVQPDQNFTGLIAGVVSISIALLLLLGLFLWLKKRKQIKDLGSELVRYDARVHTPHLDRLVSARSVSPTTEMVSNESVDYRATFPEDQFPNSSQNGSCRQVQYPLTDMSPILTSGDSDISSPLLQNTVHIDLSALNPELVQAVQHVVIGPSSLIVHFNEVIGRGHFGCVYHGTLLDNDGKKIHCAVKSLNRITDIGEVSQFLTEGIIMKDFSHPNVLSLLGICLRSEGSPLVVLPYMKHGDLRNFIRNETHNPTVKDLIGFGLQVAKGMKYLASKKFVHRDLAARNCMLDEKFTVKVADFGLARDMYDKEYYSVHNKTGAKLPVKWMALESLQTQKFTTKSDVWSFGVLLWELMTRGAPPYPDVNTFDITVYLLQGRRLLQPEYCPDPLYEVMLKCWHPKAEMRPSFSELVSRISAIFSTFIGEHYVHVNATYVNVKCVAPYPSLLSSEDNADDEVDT
T2 sequence (chain, as listed by the source mutant limits assumed): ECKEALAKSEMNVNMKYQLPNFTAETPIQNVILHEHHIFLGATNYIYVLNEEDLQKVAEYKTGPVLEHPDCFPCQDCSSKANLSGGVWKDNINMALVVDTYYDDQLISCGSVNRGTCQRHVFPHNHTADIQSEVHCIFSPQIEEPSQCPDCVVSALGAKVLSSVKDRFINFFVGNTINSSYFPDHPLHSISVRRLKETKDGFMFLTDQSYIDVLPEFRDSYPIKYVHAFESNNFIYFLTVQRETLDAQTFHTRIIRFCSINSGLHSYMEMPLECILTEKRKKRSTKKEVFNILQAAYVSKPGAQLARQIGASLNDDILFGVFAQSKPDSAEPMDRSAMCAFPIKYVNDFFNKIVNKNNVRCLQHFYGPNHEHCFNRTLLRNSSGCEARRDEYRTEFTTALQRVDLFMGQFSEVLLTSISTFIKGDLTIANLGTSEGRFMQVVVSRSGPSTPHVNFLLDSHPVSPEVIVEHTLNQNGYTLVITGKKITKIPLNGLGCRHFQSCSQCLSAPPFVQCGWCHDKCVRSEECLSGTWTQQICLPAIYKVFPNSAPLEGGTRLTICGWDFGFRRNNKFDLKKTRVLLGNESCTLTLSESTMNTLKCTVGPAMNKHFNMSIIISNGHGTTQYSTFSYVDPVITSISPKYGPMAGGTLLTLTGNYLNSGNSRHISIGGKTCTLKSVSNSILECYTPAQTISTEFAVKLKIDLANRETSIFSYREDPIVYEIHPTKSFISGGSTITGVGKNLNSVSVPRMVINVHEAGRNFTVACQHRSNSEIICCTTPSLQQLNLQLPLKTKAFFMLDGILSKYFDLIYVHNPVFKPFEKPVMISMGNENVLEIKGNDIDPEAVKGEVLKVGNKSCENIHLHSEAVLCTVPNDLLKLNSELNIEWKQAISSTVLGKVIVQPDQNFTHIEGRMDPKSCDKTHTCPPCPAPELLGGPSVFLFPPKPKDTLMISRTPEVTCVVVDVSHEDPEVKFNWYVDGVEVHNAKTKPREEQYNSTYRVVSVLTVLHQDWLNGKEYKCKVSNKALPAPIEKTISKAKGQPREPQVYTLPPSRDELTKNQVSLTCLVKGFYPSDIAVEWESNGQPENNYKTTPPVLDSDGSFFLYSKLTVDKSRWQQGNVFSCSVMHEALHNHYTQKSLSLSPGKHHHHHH
T1 sequence (P08581 25-1390 limits assumed): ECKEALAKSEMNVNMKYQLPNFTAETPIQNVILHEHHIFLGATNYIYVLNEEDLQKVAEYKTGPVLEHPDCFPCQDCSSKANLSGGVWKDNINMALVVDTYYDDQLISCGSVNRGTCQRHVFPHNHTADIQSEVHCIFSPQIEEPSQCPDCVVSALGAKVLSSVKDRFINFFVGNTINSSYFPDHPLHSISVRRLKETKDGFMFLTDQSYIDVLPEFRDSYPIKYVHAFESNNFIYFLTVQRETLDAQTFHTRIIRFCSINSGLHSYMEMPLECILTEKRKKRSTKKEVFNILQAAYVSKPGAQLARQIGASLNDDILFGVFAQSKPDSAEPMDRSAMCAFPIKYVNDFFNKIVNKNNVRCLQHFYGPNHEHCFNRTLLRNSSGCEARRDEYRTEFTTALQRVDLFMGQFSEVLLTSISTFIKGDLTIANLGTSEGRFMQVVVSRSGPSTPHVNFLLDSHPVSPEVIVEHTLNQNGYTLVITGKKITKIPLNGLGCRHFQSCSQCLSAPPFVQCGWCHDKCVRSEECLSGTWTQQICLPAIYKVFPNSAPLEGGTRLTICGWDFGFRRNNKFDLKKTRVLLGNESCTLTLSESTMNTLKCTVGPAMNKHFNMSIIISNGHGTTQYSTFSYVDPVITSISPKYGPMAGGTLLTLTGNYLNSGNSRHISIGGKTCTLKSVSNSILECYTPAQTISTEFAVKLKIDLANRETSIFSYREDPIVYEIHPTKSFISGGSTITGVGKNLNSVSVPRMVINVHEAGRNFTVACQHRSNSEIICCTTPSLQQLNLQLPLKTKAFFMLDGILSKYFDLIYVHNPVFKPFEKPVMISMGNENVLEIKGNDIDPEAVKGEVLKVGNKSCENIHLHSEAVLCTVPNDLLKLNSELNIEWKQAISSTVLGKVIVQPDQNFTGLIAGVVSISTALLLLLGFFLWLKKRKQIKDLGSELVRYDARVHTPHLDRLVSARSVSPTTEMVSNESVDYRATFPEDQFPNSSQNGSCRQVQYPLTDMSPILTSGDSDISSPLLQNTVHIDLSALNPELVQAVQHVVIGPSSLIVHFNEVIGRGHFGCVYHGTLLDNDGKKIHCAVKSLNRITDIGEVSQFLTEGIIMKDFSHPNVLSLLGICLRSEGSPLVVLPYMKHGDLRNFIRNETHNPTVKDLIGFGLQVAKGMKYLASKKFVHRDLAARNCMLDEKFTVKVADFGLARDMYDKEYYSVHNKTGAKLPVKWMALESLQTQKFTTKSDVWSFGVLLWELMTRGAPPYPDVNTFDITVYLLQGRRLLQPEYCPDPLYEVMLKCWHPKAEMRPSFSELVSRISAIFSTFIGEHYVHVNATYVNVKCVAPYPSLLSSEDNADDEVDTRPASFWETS
T4 sequence (P16410 37-162 limits assumed, change not shown): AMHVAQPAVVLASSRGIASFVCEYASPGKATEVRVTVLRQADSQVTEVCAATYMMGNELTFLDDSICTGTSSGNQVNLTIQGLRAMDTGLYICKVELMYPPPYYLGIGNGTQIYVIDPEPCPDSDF

B1: A007901219 (A00790105-9GS-Alb23) (bispecific antibody)
chain: DVQLVESGGGLVQPGGSLRLSCAASGFILDYYAIGWFRQAPGKEREGVLCIDASDDITYYADSVKGRFTISRDNSKNTVYLQMNSLRPEDTAVYYCATPIGLSSSCLLEYDYDYWGQGTLVTVSSGGGGSGGGSEVQLLESGGGLVQPGGSLRLSCAASGFTFRSFGMSWVRQAPGKGPEWVSSISGSGSDTLYADSVKGRFTISRDNSKNTLYLQMNSLRPEDTAVYYCTIGGSLSRSSQGTLVTVSS
notes: also called A007901219 (Alb23)
Regarding B1, the “fold improved potency against 5D5 Fab v2, cMET phosphorylation assay” value in [1] is roughly 2 fold. In [2], the “IC50, cMET phosphorylation assay, A549 cells, +HSA” value came out at 4.2 nM and the “IC50, cMET phosphorylation assay, A549 cells, -HSA” value stood at 5.41 nM. Besides, the “fold improved potency against 5D5 Fab v2” value in experiment [3] is greater than 5 fold. Further, in experiment [4], the IC50 was found to be 0.066 nM.

B2: A00790067 (VHH)
VHH: VQLVESGGGLVQPGGSLRLSCAASGFILDYYAIGWFRQAPGKEREGVLCIDASDDITYYADSVKGRFTISRDNAKNTVYLQMNSLKPEDTGVYYCATPIGLSSSCLLEYDYDYWGQGTLVTVSS
notes: the entry as printed already holds the 3xFLAG-His6 tag; also called 04E09 (Q108L)
Take B2: the “IC50, c-Met phosphorylation, EXP 1” value in [5] is 2.21 nM. For the same molecule, the IC50 in experiment [6] and in [7] was 0.069 nM throughout.

B3: 04E09 (L49S) (SEQ ID NO: 23) tagged with 3xFlag-His6 (VHH)
VHH: EVQLVESGGGLVQPGGSLRLSCAASGFILDYYAIGWFRQAPGKEREGVSCIDASDDITYYADSVKGRFTISRDNAKNTVYLQMNSLKPEDTGVYYCATPIGLSSSCLLEYDYDYWGQGTLVTVSS
On to B3, for which, in [8], the “IC50, HGF-dependent c-Met phosphorylation in A549 tumor cells” value worked out at 3.1 nM. Further, in [9], the “% inhibition” value is 100% and the IC50 is 0.61 nM.

B4: A007901222 (bispecific antibody)
chain: DVQLVESGGGLVQPGGSLRLSCAASGFILDYYAIGWFRQAPGKEREGVLCIDASDDITYYADSVKGRFTISRDNSKNTVYLQMNSLRPEDTAVYYCATPIGLSSSCLLEYDYDYWGQGTLVTVSSGGGGSGGGSEVQLLESGGGLVQPGGSLRLSCAASGFTFRSFGMSWVRQAPGKGPEWVSSISGSGSDTLYADSVKGRFTISRDNSKNTLYLQMNSLRPEDTAVYYCTIGGSLSRSSQGTLVTVSSA
notes: produced in P. pastoris X33; also called A00790105-9GS-Alb23-A
In the case of B4, in experiment [10], the “IC50, c-Met phosphorylation” value amounted to 3.97 nM and the “IC50, proliferation assay” value came out at 1.37 nM. For the same molecule, the IC50 in experiment [11] is 0.072 nM.

B5: 04E09 (C22A/C92S) (SEQ ID NO: 25) tagged with 3xFlag-His6 (VHH)
VHH: EVQLVESGGGLVQPGGSLRLSAAASGFILDYYAIGWFRQAPGKEREGVLCIDASDDITYYADSVKGRFTISRDNAKNTVYLQMNSLKPEDTGVYYSATPIGLSSSCLLEYDYDYWGQGTLVTVSSGAADYKDHDGDYKDHDIDYKDDDDKGAAHHHHHH
For B5, in experiment [8], the “IC50, HGF-dependent c-Met phosphorylation in A549 tumor cells” value was determined as 3.8 nM. Also, in experiment [12], the binding result is “no binding”. For the same molecule, in [13], the Kd was 0.0234 nM, the koff stood at 7.9e-05 s⁻¹ and the kon was determined as 3.37e+06 M⁻¹ s⁻¹. In experiment [9], the “% inhibition” value came to 101% and the IC50 was determined as 0.49 nM.

B6: 04E09 (C50S/C100bG) (SEQ ID NO: 24) tagged with 3xFlag-His6 (VHH)
VHH: B3 VHH with S49L, C50S, C106G
As for B6, in [12], the binding result is “no binding”. Also, in [13], the Kd came out at 4.09 nM, the koff was determined as 0.000788 s⁻¹ and the kon was 193000 M⁻¹ s⁻¹. For the same molecule, in experiment [9], the “% inhibition” value was found to be 100%, the half-maximal inhibitory concentration (IC50) came out at 20 nM and the “factor of decrease in potency against parental SEQ ID NO: 7” value was roughly 35 fold.

B7: A00790105 tagged with 3xFlag-His6 (VHH)
VHH: B3 VHH with E1D, S49L, A75S, K87R, G92A
notes: also called 04E09 (E1D, A74S, K83R, G88A, Q108L)
Consider B7, for which the “IC50, c-Met phosphorylation, EXP 2” value in experiment [5] was 2.33 nM. Besides, in experiment [14], the half-maximal inhibitory concentration (IC50) was 0.061 nM.

B8: A00790069 (VHH)
VHH: B3 VHH with S49L, A75S, K87R, G92A
notes: the entry as printed already holds the 3xFLAG-His6 tag; also called 04E09 (A74S, K83R, G88A, Q108L)
Consider B8, for which the “IC50, c-Met phosphorylation, EXP 1” value in experiment [5] came to 2.05 nM. In addition, the “IC50, c-Met phosphorylation, EXP 2” value in experiment [5] worked out at 2.45 nM. Also, the figures for the half-maximal inhibitory concentration (IC50) in [6], in experiment [14] and in [7] were 0.107 nM, 0.071 nM and 0.046 nM, respectively.
